The values that follow come from patent publication US20260199458A1 (INCENDIA THERAPEUTICS, published 2026).

Where “and” joins values, the source holds several entries; their conditions need not be identical. Identical values can stand only once.

In test [1] the target is T1, Rat DDR1 extracellular domain (rat, UniProt Q63474 22-414).
T1 construct: extracellular domain
T1 sequence (looked up): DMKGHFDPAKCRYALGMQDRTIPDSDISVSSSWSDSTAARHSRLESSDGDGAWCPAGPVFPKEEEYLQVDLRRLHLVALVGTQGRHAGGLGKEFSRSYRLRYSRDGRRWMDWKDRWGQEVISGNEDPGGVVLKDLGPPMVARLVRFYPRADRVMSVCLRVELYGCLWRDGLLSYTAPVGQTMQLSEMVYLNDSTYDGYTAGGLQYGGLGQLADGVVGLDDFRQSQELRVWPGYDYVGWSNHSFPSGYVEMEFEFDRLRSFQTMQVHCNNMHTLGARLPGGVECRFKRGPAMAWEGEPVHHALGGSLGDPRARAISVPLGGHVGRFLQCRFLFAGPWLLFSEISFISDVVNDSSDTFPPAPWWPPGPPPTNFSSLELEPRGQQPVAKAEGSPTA
Kind of test: Biacore, DDR1 extracellular domain. On the procedure:
(§1) First, 9H-1 was tested for its affinity to DDR1 protein from human, mouse, rat, and cynomolgus monkey.
For orientation: In SPR one partner is held on a chip, and binding of the other changes the refractive index at the surface.

For test [2], the target named is T2, Human DDR1 extracellular domain (human, UniProt Q08345 21-417).
T2 construct: extracellular domain
As to the kind of experiment: Biacore, DDR1 extracellular domain. On the procedure: as §1

Test [3] concerns the target T3, Cynomolgus monkey DDR1 extracellular domain (cynomolgus monkey, UniProt A0A2K5V739 47-443).
T3 construct: extracellular domain; also called Cyno DDR1
T3 sequence: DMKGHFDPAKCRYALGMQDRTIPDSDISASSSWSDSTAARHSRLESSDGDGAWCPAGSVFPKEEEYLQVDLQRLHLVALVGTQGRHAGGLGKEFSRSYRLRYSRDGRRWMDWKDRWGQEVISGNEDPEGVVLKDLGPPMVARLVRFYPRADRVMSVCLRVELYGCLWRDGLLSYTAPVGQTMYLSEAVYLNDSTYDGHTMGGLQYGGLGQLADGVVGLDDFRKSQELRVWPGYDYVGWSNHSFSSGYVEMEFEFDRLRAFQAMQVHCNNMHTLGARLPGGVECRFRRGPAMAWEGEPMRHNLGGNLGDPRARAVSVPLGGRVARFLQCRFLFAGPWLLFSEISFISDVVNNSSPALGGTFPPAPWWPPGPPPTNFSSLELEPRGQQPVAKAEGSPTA
As to the kind of experiment: Biacore, DDR1 extracellular domain. How it is done: as §1

Test [4] deals with T4, Mouse DDR1 extracellular domain (mouse, UniProt Q03146 22-415).
T4 construct: extracellular domain
T4 sequence (looked up): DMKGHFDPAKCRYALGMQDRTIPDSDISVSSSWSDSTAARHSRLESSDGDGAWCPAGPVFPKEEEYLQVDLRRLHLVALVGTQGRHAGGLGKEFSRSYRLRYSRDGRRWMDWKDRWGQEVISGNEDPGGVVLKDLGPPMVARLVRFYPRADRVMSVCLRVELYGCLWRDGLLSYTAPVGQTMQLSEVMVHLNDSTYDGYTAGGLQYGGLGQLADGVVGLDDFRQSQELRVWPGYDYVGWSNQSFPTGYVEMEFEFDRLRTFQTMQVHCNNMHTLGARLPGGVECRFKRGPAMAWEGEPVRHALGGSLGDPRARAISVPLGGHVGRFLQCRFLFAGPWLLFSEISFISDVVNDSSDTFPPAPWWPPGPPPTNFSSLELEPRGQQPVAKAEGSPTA
Kind of test: Biacore, DDR1 extracellular domain. How it is done: as §1

Test [5] has as its target T2, Human DDR1 extracellular domain. Kind of test: Biacore, DDR1 extracellular domain; KD in mass units (ng/mL), same fit as the 1.36 nM of r7c2. How it is done:
as §1

B1: 9H-1 (humanized DDR1-9, WT IgG1 Fc) (antibody, V domains shown)
VH: QVQLVESGGRVVQPGRSLRLSCTASGFSLNRYYMLWVRQAPGKGLEWIGTISYGDTTYYASWAKGRFTISRDNSKNTLYLQMNSLRAEDTAVYYCARADTGDNGYLGLQLWGQGTLVTVSS
VL: DIQMTQSPSSVSASVGDRVTITCQASQSIGSVLAWYQQKPGKAPKLLISGVFDLASGVPSRFSGSGSGTDFTLTISSLQPEDFATYYCQYIPYGSSPFGGGTKVEIKR
notes: In some embodiments the heavy chain lacks the terminal lysine; also called PRTH-101; humanized DDR1-9 (9H-1)_1 WT IgG1 Fc
Broadly, the Kd is the concentration at which binding is half-saturated. One may read the koff as a measure of how fast the partners let go of each other. What is called kon is the rate constant with which the complex forms. Turning to B1, the Kd in test [1] is 2.28 nM and 0.342 µg/mL; in test [2] it was 1.36 nM; in test [3], 1.3 nM and 0.195 µg/mL; in test [4], 16.9 nM and 2.54 µg/mL; in test [5] it was 0.204 µg/mL. The dissociation rate constant (koff) in test [1] worked out at 0.000455 s⁻¹; in test [2] it was 0.000181 s⁻¹; in test [3], 0.00015 s⁻¹; in test [4], 0.00397 s⁻¹. For the same molecule, the kon in test [1] was 199000 M⁻¹ s⁻¹; in test [2], 133000 M⁻¹ s⁻¹; in test [3], 116000 M⁻¹ s⁻¹; in test [4], 235000 M⁻¹ s⁻¹. For the same molecule, the t1/2 was determined as 25.3 min in test [1], 64 min in test [2], 77 min in test [3] and 2.9 min in test [4].
